Experimental data reported in PMC11187563, “The importance of tyrosines in multimers of cyclic RGD nonapeptides: towards αvβ6-integrin targeted radiotherapeutics” (RSC Medicinal Chemistry, 2024).
Read-outs that look alike come from different tables or passages of the source.

Legend:
[1] = system: αvβ6-integrin expressing human lung adenocarcinoma cell line H2009 xenografts; assay: Ex vivo biodistribution of 177Lu-labeled peptide tetramers in H2009 xenografted SCID mice; conditions: H2009 bearing SCID mice
Procedure: (§1) The biodistribution of the ^177Lu-labeled peptide conjugates was investigated in severe combined immunodeficiency (SCID) mice bearing subcutaneous xenografts of the αvβ6-integrin expressing human lung adenocarcinoma cell line H2009 on their right shoulders. Two representative time points after i.v. administration (p.i.) were evaluated.
(§2) Analytical HPLC was performed on a Shimadzu (Kyoto, Japan) Prominence HPLC system equipped with either a Dr. Maisch ReproSil Pur C18 AQ 150 × 4.6 mm, 5 μm, 120 Å (AC1) or a Phenomenex Kinetex C18 150 × 4.6 mm 5 μm column (AC2). Semipreparative HPLC was performed on a Shimadzu HPLC system equipped with either a Dr. Maisch ReproSil Pur C18 AQ 250 × 10 mm, 5 μm, 120 Å column with 5 mL min^−1 flow (PC1) or a Dr. Maisch ReproSil Pur C18 150 × 30 mm, 5 μm, 120 Å column with 20 mL min^−1 flow (PC2). Solvents for both systems were water (A) and acetonitrile (B) each supplemented with 0.1% (vol) trifluoroacetic acid (TFA). ESI-MS spectra (positive mode) were recorded on a Shimadzu LC-MS 2020 single quadrupol mass spectrometer. Solvents for MS applications were water (A) and acetonitrile (B) each supplemented with 0.1% (vol) formic acid. The other experimental procedures (determination of log D7.4, cultivation of H2009 human lung adenocarcinoma cells, generation of tumor xenografts in CB17 SCID mice, and biodistribution) were performed as described before.[28] All animal experiments have been carried out according to applicable law and institutional guidelines of Technical University of Munich, and were approved by the responsible local authority (Regierung von Oberbayern). The H2009 cells were regularly authenticated and tested for mycoplasma contamination. DOTPI-tetraazide,[43]FF (previously termed AvB6),[29]FY,[34] and YY (also referred to as Tyr2-alkyne)[36] were synthesized as described previously.

[2] = as above; conditions: CB17 SCID, mouse, iv, total radioactivity, H2009 bearing SCID mice; for tissue uptake at 72 h / tissue to tissue ratio at 72 h: 42 pmol, 3 d p.i.; for tissue uptake at 1.5 h / tissue to tissue ratio at 1.5 h: 139 pmol, 90 min p.i.
Procedure: as §1, §2

[3] = H2009 tumor, read-out: Tumor H2009 %IA/g
[4] = adrenals, read-out: Adrenals %IA/g
[5] = heart (myocard), read-out: Heart (myocard) %IA/g
[6] = kidneys, read-out: Kidneys %IA/g
[7] = large intestine (empty), read-out: Large intestine (empty) %IA/g
[8] = pancreas, read-out: Pancreas %IA/g
[9] = small intestine (empty), read-out: Small intestine (empty) %IA/g
[10] = stomach (empty), read-out: Stomach (empty) %IA/g
[11] = tumor/blood, read-out: tumor/organ ratio, Blood
[12] = tumor/heart (myocard), read-out: tumor/organ ratio, Heart (myocard)
[13] = tumor/liver, read-out: tumor/organ ratio, Liver
[14] = tumor/lung, read-out: tumor/organ ratio, Lung
[15] = tumor/pancreas, read-out: tumor/organ ratio, Pancreas
[16] = tumor/spleen, read-out: tumor/organ ratio, Spleen

## CC(C)C[C@@H]1NC(=O)[C@H](CC(=O)O)NC(=O)CNC(=O)[C@H](CCCNC(=N)N)NC(=O)[C@H](Cc2ccccc2)NC(=O)[C@H](CCCCNC(=O)CCc2cn(CCCNC(=O)CCP(=O)(O)CN3CCN(CP(=O)(O)CCC(=O)NCCCn4cc(CCC(=O)NCCCC[C@H]5C(=O)N[C@@H](Cc6ccccc6)C(=O)N[C@@H](CCCNC(=N)N)C(=O)NCC(=O)N[C@@H](CC(=O)O)C(=O)N[C@@H](CC(C)C)C(=O)N[C@@H](C)C(=O)N[C@@H](Cc6ccc(O)cc6)C(=O)N6CCC[C@@H]6C(=O)N5C)nn4)CCN(CP(=O)(O)CCC(=O)NCCCn4cc(CCC(=O)NCCCC[C@H]5C(=O)N[C@@H](Cc6ccccc6)C(=O)N[C@@H](CCCNC(=N)N)C(=O)NCC(=O)N[C@@H](CC(=O)O)C(=O)N[C@@H](CC(C)C)C(=O)N[C@@H](C)C(=O)N[C@@H](Cc6ccc(O)cc6)C(=O)N6CCC[C@@H]6C(=O)N5C)nn4)CCN(CP(=O)(O)CCC(=O)NCCCn4cc(CCC(=O)NCCCC[C@H]5C(=O)N[C@@H](Cc6ccccc6)C(=O)N[C@@H](CCCNC(=N)N)C(=O)NCC(=O)N[C@@H](CC(=O)O)C(=O)N[C@@H](CC(C)C)C(=O)N[C@@H](C)C(=O)N[C@@H](Cc6ccc(O)cc6)C(=O)N6CCC[C@@H]6C(=O)N5C)nn4)CC3)nn2)N(C)C(=O)[C@H]2CCCN2C(=O)[C@H](Cc2ccccc2)NC(=O)[C@H](C)NC1=O [Compound 177Lu-Y3, metal not drawn]
[1]; 90 min p.i.
  tumor/organ ratio, Kidneys: 0.0
[1]; 3 d p.i.
  tumor/organ ratio, Kidneys: 0.0
[2]; [3]
  tissue uptake at 72 h: 2.03 %ID/g
  tissue uptake at 1.5 h: 3.7 %ID/g
[2]; [4]
  tissue uptake at 72 h: 0.27 %ID/g
  tissue uptake at 1.5 h: 1.04 %ID/g
[2]; blood, read-out: Blood %IA/g
  tissue uptake at 72 h: 0.02 %ID/g
  tissue uptake at 1.5 h: 1.11 %ID/g
[2]; bone, read-out: Bone %IA/g
  tissue uptake at 72 h: 0.35 %ID/g
  tissue uptake at 1.5 h: 1.51 %ID/g
[2]; [5]
  tissue uptake at 72 h: 0.22 %ID/g
  tissue uptake at 1.5 h: 0.65 %ID/g
[2]; [6]
  tissue uptake at 72 h: 250 %ID/g
  tissue uptake at 1.5 h: 141 %ID/g
[2]; [7]
  tissue uptake at 72 h: 1.34 %ID/g
  tissue uptake at 1.5 h: 3.43 %ID/g
[2]; liver, read-out: Liver %IA/g
  tissue uptake at 72 h: 1.17 %ID/g
  tissue uptake at 1.5 h: 7.59 %ID/g
[2]; lung, read-out: Lung %IA/g
  tissue uptake at 72 h: 1.22 %ID/g
  tissue uptake at 1.5 h: 4.91 %ID/g
[2]; muscle, read-out: Muscle %IA/g
  tissue uptake at 72 h: 0.47 %ID/g
  tissue uptake at 1.5 h: 0.57 %ID/g
[2]; [8]
  tissue uptake at 72 h: 0.25 %ID/g
  tissue uptake at 1.5 h: 0.36 %ID/g
[2]; [9]
  tissue uptake at 72 h: 0.37 %ID/g
  tissue uptake at 1.5 h: 2.49 %ID/g
[2]; spleen, read-out: Spleen %IA/g
  tissue uptake at 72 h: 1.36 %ID/g
  tissue uptake at 1.5 h: 8.5 %ID/g
[2]; [10]
  tissue uptake at 72 h: 4.76 %ID/g
  tissue uptake at 1.5 h: 7.42 %ID/g
[2]; tumor / adrenals, read-out: tumor/organ ratio, Adrenals
  tissue to tissue ratio at 72 h: 8.4
[2]; tumor / bone, read-out: tumor/organ ratio, Bone
  tissue to tissue ratio at 72 h: 6.6
[2]; tumor / large intestine (empty), read-out: tumor/organ ratio, Large intestine (empty)
  tissue to tissue ratio at 72 h: 2.3
[2]; tumor / muscle, read-out: tumor/organ ratio, Muscle
  tissue to tissue ratio at 72 h: 5.3
[2]; tumor / small intestine (empty), read-out: tumor/organ ratio, Small intestine (empty)
  tissue to tissue ratio at 72 h: 6.6
[2]; tumor / stomach (empty), read-out: tumor/organ ratio, Stomach (empty)
  tissue to tissue ratio at 72 h: 0.5
[2]; tumor/adrenals, read-out: tumor/organ ratio, Adrenals
  tissue to tissue ratio at 1.5 h: 3.9
[2]; [11]
  tissue to tissue ratio at 72 h: 129
  tissue to tissue ratio at 1.5 h: 3.4
[2]; tumor/bone, read-out: tumor/organ ratio, Bone
  tissue to tissue ratio at 1.5 h: 2.5
[2]; [12]
  tissue to tissue ratio at 72 h: 9.4
  tissue to tissue ratio at 1.5 h: 5.8
[2]; tumor/large intestine (empty), read-out: tumor/organ ratio, Large intestine (empty)
  tissue to tissue ratio at 1.5 h: 1.1
[2]; [13]
  tissue to tissue ratio at 72 h: 1.9
  tissue to tissue ratio at 1.5 h: 0.6
[2]; [14]
  tissue to tissue ratio at 72 h: 1.7
  tissue to tissue ratio at 1.5 h: 0.8
[2]; tumor/muscle, read-out: tumor/organ ratio, Muscle
  tissue to tissue ratio at 1.5 h: 6.6
[2]; [15]
  tissue to tissue ratio at 72 h: 10.6
  tissue to tissue ratio at 1.5 h: 10.3
[2]; tumor/small intestine (empty), read-out: tumor/organ ratio, Small intestine (empty)
  tissue to tissue ratio at 1.5 h: 1.5
[2]; [16]
  tissue to tissue ratio at 72 h: 1.7
  tissue to tissue ratio at 1.5 h: 0.5
[2]; tumor/stomach (empty), read-out: tumor/organ ratio, Stomach (empty)
  tissue to tissue ratio at 1.5 h: 0.5
